T1: Human DLAT recombinant protein (ProSpec, Catalog # ENZ-082) (human, UniProt P10515 87-647, limits assumed)
T1 construct: also called DLAT antigen; Dihydrolipoamide Acetyltransferase
T1 sequence (looked up): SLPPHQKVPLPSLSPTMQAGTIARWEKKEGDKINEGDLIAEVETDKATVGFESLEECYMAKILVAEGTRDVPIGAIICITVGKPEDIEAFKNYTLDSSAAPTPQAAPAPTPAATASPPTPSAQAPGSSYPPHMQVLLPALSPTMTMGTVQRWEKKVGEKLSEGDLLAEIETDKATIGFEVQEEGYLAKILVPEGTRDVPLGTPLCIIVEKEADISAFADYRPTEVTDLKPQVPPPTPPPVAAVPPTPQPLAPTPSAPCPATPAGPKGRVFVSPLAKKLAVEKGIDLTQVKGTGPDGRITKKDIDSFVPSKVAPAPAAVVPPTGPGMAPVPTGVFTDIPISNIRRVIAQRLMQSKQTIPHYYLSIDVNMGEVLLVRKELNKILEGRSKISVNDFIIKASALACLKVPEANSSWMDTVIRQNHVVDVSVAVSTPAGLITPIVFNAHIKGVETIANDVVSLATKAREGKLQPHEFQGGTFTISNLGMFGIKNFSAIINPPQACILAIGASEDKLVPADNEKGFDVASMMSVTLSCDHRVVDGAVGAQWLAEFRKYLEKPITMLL

B1: TPP-994 (PD2 with PD-L1 fused to the C-terminus of the heavy chain) (Fab)
heavy: EVQLVESGGGLVKPGGSLRLSCAASGFTFGSYSMTWVRQAPGKGLEWVSFISTVSTYIYYPDSVKGRFTISRDNAKNSLYLQMNSLRAEDTAVYYCARVSGRGSAARDGEKGTYYYYMDVWGKGTTVTVSSASTKGPSVFPLAPSSKSTSGGTAALGCLVKDYFPEPVTVSWNSGALTSGVHTFPAVLQSSGLYSLSSVVTVPSSSLGTQTYICNVNHKPSNTKVDKRVEPKSCGGSSRSSSSGGGGSGGGGFTVTVPKDLYVVEYGSNMTIECKFPVEKQLDLAALIVYWEMEDKNIIQFVHGEEDLKVQHSSYRQRARLLKDQLSLGNAALQITDVKLQDAGVYRCMISYGGADYKRITVKVNA
light: SSELTQDPAVSVALGQTVTITCQGDSLRSYYASWYQQKPGQAPVLVIFGKNNRPSGIPDRFSGSRSGNTASLTITGAQAEDEADYFCDSRDSSANHWVFGGGTKLTVLQPKAAPSVTLFPPSSEELQANKATLVCLISDFYPGAVTVAWKADSSPVKAGVETTTPSKQSNNKYAASSYLSLTPEQWKSHKSYSCQVTHEGSTVEKTVAPTECS
notes: Fab fusion with the human PD-L1 variable-like domain
B2: TPP-986, human IgG2/4 PD5 antibody, N-terminus PD-L1 HC (antibody)
heavy: FTVTVPKDLYVVEYGSNMTIECKFPVEKQLDLAALIVYWEMEDKNIIQFVHGEEDLKVQHSSYRQRARLLKDQLSLGNAALQITDVKLQDAGVYRCMISYGGADYKRITVKVNAGGSSRSSSSGGGGSGGGGQLQLQESGPGLVKPSETLSLTCIVSGGSISRNSYYWGWIRQPPGKGLEWIGSIVYSGSTYHQPSLKSRVTIFLDTSKNQFFLKLTSVTAADTAVYYCARGTRATTWPPPIGYWGQGTLVTVSSASTKGPSVFPLAPCSRSTSESTAALGCLVKDYFPEPVTVSWNSGALTSGVHTFPAVLQSSGLYSLSSVVTVPSSNFGTQTYTCNVDHKPSNTKVDKTVERKCCVECPPCPAPPVAGPSVFLFPPKPKDTLMISRTPEVTCVVVDVSQEDPEVQFNWYVDGVEVHNAKTKPREEQFNSTYRVVSVLTVLHQDWLNGKEYKCKVSNKGLPSSIEKTISKAKGQPREPQVYTLPPSQEEMTKNQVSLTCLVKGFYPSDIAVEWESNGQPENNYKTTPPVLDSDGSFFLYSRLTVDKSRWQEGNVFSCSVMHEALHNHYTQKSLSLSLGK
light: QSVLTQPPSVSAAPGQKVTVSCFGSSSNIGNYFASWYQQLPGAAPRLLIYGNNERPSGIPDRFSGSKSGTSATLVITGLQTGDEAAYYCATWDSSLSAVVFGGGTKLTVLGQPKANPTVTLFPPSSEELQANKATLVCLISDFYPGAVTVAWKADGSPVKAGVETTKPSKQSNNKYAASSYLSLTPEQWKSHRSYSCQVTHEGSTVEKTVAPTECS
notes: Antibody fused with the human PD-L1 variable-like domain
B3: TPP-992, human IgG2/4 PD5 antibody, N-terminus PD-L1 LC (antibody)
heavy: QLQLQESGPGLVKPSETLSLTCIVSGGSISRNSYYWGWIRQPPGKGLEWIGSIVYSGSTYHQPSLKSRVTIFLDTSKNQFFLKLTSVTAADTAVYYCARGTRATTWPPPIGYWGQGTLVTVSSASTKGPSVFPLAPCSRSTSESTAALGCLVKDYFPEPVTVSWNSGALTSGVHTFPAVLQSSGLYSLSSVVTVPSSNFGTQTYTCNVDHKPSNTKVDKTVERKCCVECPPCPAPPVAGPSVFLFPPKPKDTLMISRTPEVTCVVVDVSQEDPEVQFNWYVDGVEVHNAKTKPREEQFNSTYRVVSVLTVLHQDWLNGKEYKCKVSNKGLPSSIEKTISKAKGQPREPQVYTLPPSQEEMTKNQVSLTCLVKGFYPSDIAVEWESNGQPENNYKTTPPVLDSDGSFFLYSRLTVDKSRWQEGNVFSCSVMHEALHNHYTQKSLSLSLGK
light: FTVTVPKDLYVVEYGSNMTIECKFPVEKQLDLAALIVYWEMEDKNIIQFVHGEEDLKVQHSSYRQRARLLKDQLSLGNAALQITDVKLQDAGVYRCMISYGGADYKRITVKVNAGGSSRSSSSGGGGSGGGGQSVLTQPPSVSAAPGQKVTVSCFGSSSNIGNYFASWYQQLPGAAPRLLIYGNNERPSGIPDRFSGSKSGTSATLVITGLQTGDEAAYYCATWDSSLSAVVFGGGTKLTVLGQPKANPTVTLFPPSSEELQANKATLVCLISDFYPGAVTVAWKADGSPVKAGVETTKPSKQSNNKYAASSYLSLTPEQWKSHRSYSCQVTHEGSTVEKTVAPTECS
notes: as for B2
B4: TPP-1003 (mIgG1 PD2 Ab) (antibody, V domains shown)
VH: EVQLVESGGGLVKPGGSLRLSCAASGFTFGSYSMTWVRQAPGKGLEWVSFISTVSTYIYYPDSVKGRFTISRDNAKNSLYLQMNSLRAEDTAVYYCARVSGRGSAARDGEKGTYYYYMDVWGKGTTVTVSS
VL: SSELTQDPAVSVALGQTVTITCQGDSLRSYYASWYQQKPGQAPVLVIFGKNNRPSGIPDRFSGSRSGNTASLTITGAQAEDEADYFCDSRDSSANHWVFGGGTKLTVLQ
notes: also called mouse IgG1 chimera anti-DLAT antibody PD2
B5: TPP-995 (PD2 with PD-L1 fused to the N-terminus of the heavy chain) (Fab)
heavy: FTVTVPKDLYVVEYGSNMTIECKFPVEKQLDLAALIVYWEMEDKNIIQFVHGEEDLKVQHSSYRQRARLLKDQLSLGNAALQITDVKLQDAGVYRCMISYGGADYKRITVKVNAGGSSRSSSSGGGGSGGGGEVQLVESGGGLVKPGGSLRLSCAASGFTFGSYSMTWVRQAPGKGLEWVSFISTVSTYIYYPDSVKGRFTISRDNAKNSLYLQMNSLRAEDTAVYYCARVSGRGSAARDGEKGTYYYYMDVWGKGTTVTVSSASTKGPSVFPLAPSSKSTSGGTAALGCLVKDYFPEPVTVSWNSGALTSGVHTFPAVLQSSGLYSLSSVVTVPSSSLGTQTYICNVNHKPSNTKVDKRVEPKSC
light: B1 light
notes: as for B1
B6: TPP-1004 (mIgG1 PD5 Ab) (antibody)
heavy: QLQLQESGPGLVKPSETLSLTCIVSGGSISRNSYYWGWIRQPPGKGLEWIGSIVYSGSTYHQPSLKSRVTIFLDTSKNQFFLKLTSVTAADTAVYYCARGTRATTWPPPIGYWGQGTLVTVSSAKTTPPSVYPLAPGSAAQTNSMVTLGCLVKGYFPEPVTVTWNSGSLSSGVHTFPAVLQSDLYTLSSSVTVPSSTWPSQTVTCNVAHPASSTKVDKKIVPRDCGCKPCICTVPEVSSVFIFPPKPKDVLTITLTPKVTCVVVDISKDDPEVQFSWFVDDVEVHTAQTKPREEQINSTFRSVSELPIMHQDWLNGKEFKCRVNSAAFPAPIEKTISKTKGRPKAPQVYTIPPPKEQMAKDKVSLTCMITNFFPEDITVEWQWNGQPAENYKNTQPIMDTDGSYFVYSKLNVQKSNWEAGNTFTCSVLHEGLHNHHTEKSLSHSPGK
light: QSVLTQPPSVSAAPGQKVTVSCFGSSSNIGNYFASWYQQLPGAAPRLLIYGNNERPSGIPDRFSGSKSGTSATLVITGLQTGDEAAYYCATWDSSLSAVVFGGGTKLTVLGQPRADAAPTVSIFPPSSEQLTSGGASVVCFLNNFYPKDINVKWKIDGSERQNGVLNSWTDQDSKDSTYSMSSTLTLTKDEYERHNSYTCEATHKTSTSPIVKSFNRNEC
notes: also called murine IgG1 PD5; Mouse PD5
B7: TPP-1005 (mIgG1 DWZ Ab) (antibody, V domains shown)
VH: EVQLLESGGDVVQPGGSLRLSCVASGFTLTNYVTAWVRRRPGKGLEWISGMTHGAVATYYSDSVRGRFSSSRDTSRSTLYLQMNDLTVEDTAIYYCAKSLHRSGTSLSYWGQGTLVTVSS
VL: QSVLTQPPSASGTPGQNINISCSGTTSNIGGSNVDWYQHVPGTAPKLFIHSNNQRPSGVPARFSASKSGTSASLAISGLQSEDEADYYCATWDVRLLAYVFGSATEVTVLR
notes: also called murine IgG1 DWZ

Assays:
[1] = biological target: T2, Programmed Death 1 (PD-1) Fc chimera (R&D Systems, Catalog # 1086-PD-050) (human, UniProt Q15116 25-167); experiment: BLI (Octet), PD-1 Fc captured on anti-human Fc tips, TPP-994 at 10 µg/mL in PBS as analyte
T2 construct: Bought reagent; not shown: Fc part of the bought chimera (captured by anti-human Fc tips)
T2 sequence (Q15116 25-167, change not shown): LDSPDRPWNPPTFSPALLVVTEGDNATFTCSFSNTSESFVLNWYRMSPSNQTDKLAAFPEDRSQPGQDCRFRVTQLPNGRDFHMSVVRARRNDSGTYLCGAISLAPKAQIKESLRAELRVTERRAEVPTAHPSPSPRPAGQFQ
Method: (§1) Final dissociation in PBS was performed in the last step on the Bio-Layer Interferometry (BLI) data.

[2] = biological target: T2, Programmed Death 1 (PD-1) Fc chimera …; experiment: BLI (Octet Red), TPP-986 loaded on anti-human IgG Fc tips, DLAT 10 µg/mL bound first, then PD-1 Fc 12.5 µg/mL
Method: (§2) Antibodies and antibody fusions were diluted to 16 μg/mL in PBS and loaded onto anti-human IgG Fc tips (ForteBio, Catalog # 18-5064). Human DLAT recombinant protein (ProSpec, Catalog # ENZ-082) was diluted into PBS to 10 μg/mL. […] Finally, a dissociation step in PBS was performed to determine dissociation from the bound antibodies.

[3] = biological target: T1, Human DLAT recombinant protein …; experiment: BIAcore, AntiFc_TPP992_DLAT, kinetics from single concentration curve (12.5nM DLAT)
[4] = biological target: T2, Programmed Death 1 (PD-1) Fc chimera …; experiment: BLI (Octet Red), TPP-992 loaded on anti-human IgG Fc tips, DLAT 10 µg/mL bound first, then PD-1 Fc 12.5 µg/mL
Method: as §2

[5] = biological target: T1, Human DLAT recombinant protein …; experiment: BIAcore kinetics, antibody captured on anti-mouse surface, DLAT (Prospec) as analyte
[6] = biological target: T2, Programmed Death 1 (PD-1) Fc chimera …; experiment: BLI (Octet), PD-1 Fc captured on anti-human Fc tips, TPP-995 at 10 µg/mL in PBS as analyte
Method: as §1

Binder	Kd [5]	koff [5]	kon [5]	other results
B1	–	–	–	binding result [1]: binds
B2	–	–	–	binding result [2]: binds
B3	–	–	–	Kd [3]: 0.184 nM; koff [3]: 0.000238 s⁻¹; kon [3]: 1.29e+06 M⁻¹ s⁻¹; binding result [4]: binds
B4	0.242 nM	4.68e-05 s⁻¹	193000 M⁻¹ s⁻¹	–
B5	–	–	–	binding result [6]: binds
B6	0.526 nM	1.94e-05 s⁻¹	36900 M⁻¹ s⁻¹	–
B7	1.72 nM	0.000149 s⁻¹	86300 M⁻¹ s⁻¹	–
